Here are results for one molecule from US20260209387A1, “SINGLE-DOMAIN ANTIBODY FOR INHIBITION OF NEUTROPHIL ELASTASE ACTIVITY” (UNIVERSITE DE LIEGE, priority 2023, published 2026).

Series [1] can be described thus: Urea-induced unfolding (intrinsic fluorescence, far UV-CD). In kind it is physicochemical. To be noted: pH 7, 25° C. As for the experimental part: 1.11.1. Preparation of the samples. Samples of NbE201 were incubated overnight at 25° C. in the presence of increasing concentrations of urea (Sigma-Aldrich) in 0.05 M NaP buffer pH 7. The protein concentration was 0.2 mg mL-1. The denaturant concentration in each sample was determined from refractive index measurements (Pace, C. N., 1986, doi.org/10.1016/0076-6879 (86) 31045-0), using a R5000 hand refractometer from Atago (Tokyo, Japan). The same samples were used to measure both the intrinsic fluorescence and far ultraviolet circular dichroism (UV-CD) spectra. Blank samples (without the Nb) every 1 M urea were prepared to make a reference curve that was used to correct the contribution of (buffer+urea) for fluorescence and circular dichroism (CD) signal at each urea concentration.
1.11.2. Measurements of fluorescence and far-UV-CD signals/spectra. Intrinsic fluorescence spectra to monitor changes in the tertiary structure were recorded at 25° C. from 305 nm to 440 nm after excitation at 280 nm with 5 nm excitation and emission slits using a Cary Eclipse Fluorimeter (Agilent, Santa Clara, USA) equipped with a thermostatically controlled multi-cuvette holder and a 10*0.4 mm pathlength quartz micro cuvette. The voltage applied at the detector was 710 V. Data acquisition was made every 0.5 nm with a scan rate of 30 nm·min^−1.
Far UV-CD spectrum of the native and denatured states (i.e. in 9 M urea) were recorded from 190 nm to 260 nm in a 0.2 mm pathlength quartz cuvette at 25° C. […] were recorded with a 0.1 nm data interval, a data pitch of 0.1 nm, 2 s integration time, a bandwidth of 1 nm and a scanning speed of 50 nm/min. The unfolding transitions were monitored by far UV-CD at 207 nm in a 0.2 mm pathlength quartz cuvette. At each denaturant concentration, 37 data points were acquired with a 1 nm bandwidth, a reading frequency of 5 s and a 4 s integration time, and averaged. The measurements were carried out with Jasco J-810 spectropolarimeter, (JASCO, Lisses, France) equipped with a Peltier cell holder.
1.11.3. Data analysis. The intrinsic fluorescence spectra were fitted using a five parameter Weibull function (from software SigmaPlot 5.0) to determine the wavelength corresponding to the highest fluorescence intensity (λmax). The changes in fluorescence intensity at 337 nm were also used to monitor the unfolding transition. The transition curves obtained were analyzed based on a two-state (N ? U) model according to Dumoulin et al. (doi: 10.1110/ps.34602) and equation 1:
where x is the concentration in denaturant and a=(ΔG°NU(H2O)−m*[D])/RT, and yobs is the monitored signal (i.e. λmax, F337 nm or CD207 nm) at a given denaturant concentration, and YN and YU are the values of these signals for the native and denatured states, respectively in the absence of denaturant. ΔG°NU(H2O) is the difference in free energy between the folded and unfolded states at 25° C.; m is a measure of the dependence of the free energy on the denaturant concentration, and [D] is the denaturant concentration. p and q are the slopes of the pre- and post-unfolding baselines, respectively, R is the gas constant, and T is the absolute temperature. Cm, the denaturant concentration at the midpoint of the denaturation curve ([U]/[N]=1) is defined as ΔG°NU(H2O)/m.

Series [2] deals with T1, porcine pancreatic elastase (pPE) (Sus scrofa, UniProt P00772).
T1 construct: purchased Sigma
T1 sequence (P00772 27-266): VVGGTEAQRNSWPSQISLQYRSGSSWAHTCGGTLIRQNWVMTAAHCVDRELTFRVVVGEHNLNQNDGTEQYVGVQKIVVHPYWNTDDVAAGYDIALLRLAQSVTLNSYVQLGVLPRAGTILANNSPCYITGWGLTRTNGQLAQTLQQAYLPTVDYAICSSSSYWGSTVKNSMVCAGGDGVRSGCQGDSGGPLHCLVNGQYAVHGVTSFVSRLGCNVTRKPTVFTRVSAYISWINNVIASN
In words: pPE inhibition, substrate Succinyl-Ala-Ala-Ala-paraNitroAnilide. The class given is biochemical. To be noted: chromogenic substrate. The source says: To determine whether NbE201 was specific for hNE, we first investigated its ability to inhibit several serine proteases: pancreatic elastase from pork (pPE, 39.2% sequence identity, from Sigma), mice neutrophil elastase (mNE, 74.9% sequence identity, from EPC) and with two other human serine proteases present in the lung: proteinase 3 (hPR3 from EPC, 54.7% sequence identity) and cathepsin G (hCG from Calbiochem, 36.7% sequence identity). The substrate used were Succinyl-Ala-Ala-Ala-paraNitroAnilide (1 mM in 0.1 M Tris pH 7.5 with NaCl 0.5 M and NaN3 0.01%, % w/v from Sigma-Aldrich) for pPE, MeOSuc-Ala-Ala-Pro-Val-AMC (100 μM in Tris 50 mM, NaCl 1 M, 0.05% (% w/v) Brij-35, pH 7.5) for mNE, N-Succinyl-Ala-Ala-Pro-Phe p-nitroanilide (0.45 mM in 100 mM HEPES pH 7.5, from Sigma Aldrich) for hCG and Boc-Ala-Ala-Nva-SBzl (0.22 mM in 100 mM MOPS pH 5.0 0.5 M NaCl, 100 μM DTNB, DMSO 10%, from EPC) for PR3. mNE (rmELA2 from R&D systems, United Kingdom) was first activated according to the supplier information. In brief, mNE was incubated with recombinant mouse active cathepsin C/DPPIy (rmCathepsin C from R&D systems) in MES 50 mM, NaCl 50 mM, pH 5.5 for 2 h at 37° C. The enzyme concentration in the assay was 6 nM, 14.7 nM, 25 nM, 5 nM for PPE, mNE, hCG and hPR3, respectively. Different molar ratios of NbE201: Enzyme were tested. […]

B1: NbE201: anti-hNE ISVD (VHH/nanobody) from immunized lama, amino acid sequence SEQ ID NO: 4 (protein)
VHH: QVQLQESGGGLVQAGGSLRLSCVVPGRTISLYRMGWFRQAPGKEREFVAGINWSGDMTDYVDSVKGRFTISRDNAKNTVYLEMNSLKPEDTAIYYCTADPKLLPLADSSYGYWGQGTQVTVSS
For the molecule B1, the Cm was 5.8 M in series [1] (CD), 5.8 M in series [1] (F (337 nm)), 6.0 M in series [1] (F (λmax)) and 5.9 ± 0.1 M in series [1] (Mean ± SD of the three probes). Besides, the m in series [1] (CD) is listed as 7.7 kJ · mol^−1 M^−1; in series [1] (F (337 nm)) it was 6.7 kJ · mol^−1 M^−1; in series [1] (F (λmax)), 6.5 kJ · mol^−1 M^−1; in series [1] (Mean ± SD of the three probes) it was 7.0 ± 0.5 kJ · mol^−1 M^−1. The “ΔG°NU(H2O)” value in series [1] (CD) turned out to be 10.6 kcal/mol; in series [1] (F (337 nm)), 9.32 kcal/mol; in series [1] (F (λmax)), 9.35 kcal/mol; in series [1] (Mean ± SD of the three probes) it was 9.75 ± 0.598 kcal/mol. For the same molecule, the “inhibition of porcine pancreatic elastase” value in series [2] is “does not inhibit”.
